The text below walks through data of PMC4967814 (2016).

Holding throughout (test): SPR
One test concerns the target recombinant human IFNω (human, UniProt P05000 22-195).
The target in another test is T1, recombinant human IFNα4 (human, UniProt P05014 24-189).
T1 chain: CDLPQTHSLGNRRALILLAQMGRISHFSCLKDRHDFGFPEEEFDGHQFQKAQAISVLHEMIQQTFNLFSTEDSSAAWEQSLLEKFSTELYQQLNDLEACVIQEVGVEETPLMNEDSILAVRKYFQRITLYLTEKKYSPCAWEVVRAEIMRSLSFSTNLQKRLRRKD

A further test addresses T2, recombinant human IFNα14 (human, UniProt P01570 24-189).
T2 chain: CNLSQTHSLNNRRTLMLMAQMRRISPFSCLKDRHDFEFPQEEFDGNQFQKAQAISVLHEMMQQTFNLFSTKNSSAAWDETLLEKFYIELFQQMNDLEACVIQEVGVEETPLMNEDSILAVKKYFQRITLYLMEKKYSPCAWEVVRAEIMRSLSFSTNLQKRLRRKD

Chain of recombinant human IFNω (P05000 22-195): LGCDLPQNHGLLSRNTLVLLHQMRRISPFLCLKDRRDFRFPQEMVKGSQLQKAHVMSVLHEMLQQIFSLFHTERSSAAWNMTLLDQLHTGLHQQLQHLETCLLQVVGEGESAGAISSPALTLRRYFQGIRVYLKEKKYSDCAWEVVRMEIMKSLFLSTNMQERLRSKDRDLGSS

B1: 26B9, APS1/APECED patient-derived anti-IFN monoclonal antibody (antibody, V domains shown)
VH: QILLQESGPGLVKPTETLSLTCSVSGDSISDSSHYWAWIRQPPGKGPEWIGSVYFSSMTHYNPSLKSRVSISVDKPKNQFSLKVTSVTVADTATYYCARQALARVGAMNWFDPWGQGSLVTVSS
VL: DIIMTQSPDSLPVSLGEGVTINCKSSQSVFFTSSNKSCLAWYQQKPGKSPKLLIYWASTRQSGVPDRFRGSGSGTDFSLTITSLQAEDVAVYFCQQCQTSPPTFGGGTRLEIK
As for B1, the Kd in the test with recombinant human IFNω is 0.125 pM; with recombinant human IFNα4 it was 0.0375 pM.

B2: 19D11, APS1/APECED patient-derived anti-IFN monoclonal antibody (antibody, V domains shown)
VH: QVQLVQSGAEVKRPGSSVRVSCRASGDTFSSYPISWVRQAPGQGLEWMGRILPALGVTNYAQNFRGRITITADKSPLTAYLELSSLRFEDTAVYYCASPSADIIPSILGTTLFAFWGQGSLVTVSS
VL: EIVLTQSPGTLSLSPGEGATLSCRASQNVSRHYLTWYQQKPGQSPRLLIYGGSSRATGVPDRFSGGGSGTDFTLTISRLEPEDFAVFYCQSYHSPPPVYTFGQGTKVEIK
With B2, the Kd with recombinant human IFNα14 was 0.0611 pM; in the test with recombinant human IFNα4 it was 0.263 pM.
